According to US20230312654A1:
pEC50: −log10 of the molar value.

Assays:
[1] = target: UFV180846 (influenza B virus B/Brisbane/60/08) (UniProt P22092)
[2] = target: UFV180284 (influenza B virus B/Brisbane/60/08) (UniProt P22092)
[3] = target: UFV180251 (influenza B virus B/Brisbane/60/08) (UniProt P22092)
[4] = target: UFV180137 (influenza B virus B/Brisbane/60/08) (UniProt P22092)
[5] = target: UFV180131 (influenza B virus B/Brisbane/60/08) (UniProt P22092)

Substance | pEC50 [1] | pEC50 [2] | pEC50 [3] | pEC50 [4] | pEC50 [5]
monoclonal antibody CR8071 | > 8.34 |  |  |  | 
monoclonal antibody CR9114 | > 8.34 | > 8.59 | > 8.59 | > 8.59 | > 8.59
